This is an account of results in article PMC11470957, “Principles of paralog-specific targeted protein degradation engaging the C-degron E3 KLHDC2” (Nature Communications, 2024).

The chains are these.
B1: KLHDC2 substrate binding domain (KLHDC2^SBD, 15-361) [not stated] / BRD3^BD2 (second bromodomain of BRD3, residues 306-416) [not stated] (parent)
chain 1: GPAFESYESMELACPAERSGHVAVSDGRHMFVWGGYKSNQVRGLYDFYLPREELWIYNMETGRWKKINTEGDVPPSMSGSCAVCVDRVLYLFGGHHSRGNTNKFYMLDSRSTDRVLQWERIDCQGIPPSSKDKLGVWVYKNKLIFFGGYGYLPEDKVLGTFEFDETSFWNSSHPRGWNDHVHILDTETFTWSQPITTGKAPSPRAAHACATVGNRGFVFGGRYRDARMNDLHYLNLDTWEWNELIPQGICPVGRSWHSLTPVSSDHLFLFGGFTTDKQPLSDAWTYCISKNEWIQFNHPYTEKPRLWHTACASDEGEVIVFGGCANNLLVHHRAAHSNEILIFSVQP
chain 2: GKLSEHLRYCDSILREMLSKKHAAYAWPFYKPVDAEALELHDYHDIIKHPMDLSTVKRKMDGREYPDAQGFAADVRLMFSNCYKYNPPDHEVVAMARKLQDVFEMRFAKMP

The variants in one assay derive from B1. The experiment in a line: ITC. The conditions noted are these: with BRD3^BD2 (second bromodomain of BRD3, residues 306-416); syringe: R56A KLHDC2SBD; cell: BRD3BD2-SJ46421 (ternary complex via PROTAC SJ46421); n = 2.
As a reminder, the Kd is the free concentration of one partner at which half of the binding sites on the other are occupied at equilibrium, for simple one-to-one binding. For chain 1 GPAFESYESMELACPAERSGHVAVSDGRHMFVWGGYKSNQVAGLYDFYLPREELWIYNMETGRWKKINTEGDVPPSMSGSCAVCVDRVLYLFGGHHSRGNTNKFYMLDSRSTDRVLQWERIDCQGIPPSSKDKLGVWVYKNKLIFFGGYGYLPEDKVLGTFEFDETSFWNSSHPRGWNDHVHILDTETFTWSQPITTGKAPSPRAAHACATVGNRGFVFGGRYRDARMNDLHYLNLDTWEWNELIPQGICPVGRSWHSLTPVSSDHLFLFGGFTTDKQPLSDAWTYCISKNEWIQFNHPYTEKPRLWHTACASDEGEVIVFGGCANNLLVHHRAAHSNEILIFSVQP [chain 1 R42A], the Kd worked out at 273 nM.

Still in this assay, the particulars now being: with KLHDC2 substrate binding domain (KLHDC2^SBD, 15-361); syringe: KLHDC2SBD; cell: E344G BRD3BD2-SJ46421 (ternary complex via PROTAC SJ46421); n = 2.
chain 2 E39G: the Kd came to 181 nM.
